These results are taken from patent US6426205 (MOUNT SINAI HOSPITAL, dated 2002).

To fix the notation:
B1: Cdc34 (enzyme, budding yeast, UniProt P14682 1-295, looked up)
chain: MSSRKSTASSLLLRQYRELTDPKKAIPSFHIELEDDSNIFTWNIGVMVLNEDSIYHGGFFKAQMRFPEDFPFSPPQFRFTPAIYHPNVYRDGRLCISILHQSGDPMTDEPDAETWSPVQTVESVLISIVSLLEDPNINSPANVDAAVDYRKNPEQYKQRVKMEVERSKQDIPKGFIMPTSESAYISQSKLDEPESNKDMADNFWYDSDLDDDENGSVILQDDDYDDGNNHIPFEDDDVYNYNDNDDDDERIEFEDDDDDDDDSIDNDSVMDRKQPHKAEDESEDVEDVERVSKKI
notes: Endogenous protein in yeast lysates, detected with anti-Cdc34 antibodies; also called endogenous Cdc34

The target in one test is T1, MYC-tagged Cdc53 (Saccharomyces cerevisiae, UniProt Q12018 1-815).
T1 construct: Expressed from the wild type promoter on a CEN plasmid in yeast and immunoprecipitated with 9E10 anti-MYC; also called Cdc53^M; Cdc53^MYC6
T1 sequence: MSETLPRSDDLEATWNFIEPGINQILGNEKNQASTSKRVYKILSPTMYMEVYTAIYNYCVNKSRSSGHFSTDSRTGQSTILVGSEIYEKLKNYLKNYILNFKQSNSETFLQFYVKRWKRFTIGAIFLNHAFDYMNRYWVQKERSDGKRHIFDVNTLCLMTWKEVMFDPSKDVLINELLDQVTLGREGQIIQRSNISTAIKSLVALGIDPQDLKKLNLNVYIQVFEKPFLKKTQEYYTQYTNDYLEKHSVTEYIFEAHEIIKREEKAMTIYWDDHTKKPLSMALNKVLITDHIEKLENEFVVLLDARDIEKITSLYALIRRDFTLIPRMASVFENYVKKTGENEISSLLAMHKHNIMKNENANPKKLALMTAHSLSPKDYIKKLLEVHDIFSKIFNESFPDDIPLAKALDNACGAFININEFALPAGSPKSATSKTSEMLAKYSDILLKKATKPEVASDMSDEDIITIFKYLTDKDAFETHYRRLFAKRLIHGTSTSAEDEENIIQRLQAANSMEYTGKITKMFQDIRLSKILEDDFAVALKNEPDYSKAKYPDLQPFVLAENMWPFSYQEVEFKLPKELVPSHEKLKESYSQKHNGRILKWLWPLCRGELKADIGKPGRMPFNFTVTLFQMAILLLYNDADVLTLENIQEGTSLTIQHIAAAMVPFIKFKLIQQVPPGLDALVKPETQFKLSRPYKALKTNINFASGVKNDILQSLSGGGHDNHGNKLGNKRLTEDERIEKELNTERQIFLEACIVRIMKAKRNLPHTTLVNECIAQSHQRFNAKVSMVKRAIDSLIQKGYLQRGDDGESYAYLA
Briefly: anti-MYC immunoprecipitation from yeast lysate, immunoblot. Background: In western blotting, separated proteins are transferred to a membrane and probed.

Test [1] deals with T2, Cdc53^Δ9-280 (MYC-tagged) (Saccharomyces cerevisiae, UniProt Q12018 1-815).
T2 construct: Deletion built with natural and engineered restriction sites; also called CDC53^MΔ9-280; pMT1850
T2 sequence: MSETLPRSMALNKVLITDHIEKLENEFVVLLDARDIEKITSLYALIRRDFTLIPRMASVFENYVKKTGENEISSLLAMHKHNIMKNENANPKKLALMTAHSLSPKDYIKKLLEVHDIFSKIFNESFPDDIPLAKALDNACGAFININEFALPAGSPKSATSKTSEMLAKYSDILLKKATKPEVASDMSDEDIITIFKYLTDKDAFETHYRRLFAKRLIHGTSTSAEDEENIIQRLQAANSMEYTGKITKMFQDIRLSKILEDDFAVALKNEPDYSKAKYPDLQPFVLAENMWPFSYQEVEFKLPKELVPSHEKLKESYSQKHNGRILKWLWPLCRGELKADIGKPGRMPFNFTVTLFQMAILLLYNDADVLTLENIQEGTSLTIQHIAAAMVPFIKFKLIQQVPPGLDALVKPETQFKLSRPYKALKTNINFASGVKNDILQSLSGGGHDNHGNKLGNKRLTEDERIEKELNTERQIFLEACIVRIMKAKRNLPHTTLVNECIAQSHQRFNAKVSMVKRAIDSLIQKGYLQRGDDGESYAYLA
The description is as above.

The target in test [2] is T3, Cdc53 with deletion of residues 448-748 (MYC-tagged) (Saccharomyces cerevisiae, UniProt Q12018 1-815).
T3 construct: The limits of the text are used here; also called Cdc53 internal deletion
T3 sequence: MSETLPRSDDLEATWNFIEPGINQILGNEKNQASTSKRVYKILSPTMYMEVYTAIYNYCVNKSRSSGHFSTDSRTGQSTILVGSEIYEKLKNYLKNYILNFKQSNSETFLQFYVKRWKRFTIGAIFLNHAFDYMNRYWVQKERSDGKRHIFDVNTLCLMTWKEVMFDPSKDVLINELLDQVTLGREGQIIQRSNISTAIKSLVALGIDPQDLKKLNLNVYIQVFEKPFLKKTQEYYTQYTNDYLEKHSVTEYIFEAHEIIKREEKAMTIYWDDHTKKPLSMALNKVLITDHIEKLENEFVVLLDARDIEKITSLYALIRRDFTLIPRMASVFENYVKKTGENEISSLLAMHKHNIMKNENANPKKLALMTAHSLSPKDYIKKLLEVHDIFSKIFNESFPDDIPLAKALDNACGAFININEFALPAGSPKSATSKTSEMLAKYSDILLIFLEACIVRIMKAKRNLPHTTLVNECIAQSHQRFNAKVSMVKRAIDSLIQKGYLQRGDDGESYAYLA
The test is described as above.

For another test, the target named is T4, Cdc53-Y48W, M49E^MYC6 (Saccharomyces cerevisiae, UniProt Q12018 1-815).
T4 construct: also called mutant Cdc53; pMT1939-1943
T4 sequence: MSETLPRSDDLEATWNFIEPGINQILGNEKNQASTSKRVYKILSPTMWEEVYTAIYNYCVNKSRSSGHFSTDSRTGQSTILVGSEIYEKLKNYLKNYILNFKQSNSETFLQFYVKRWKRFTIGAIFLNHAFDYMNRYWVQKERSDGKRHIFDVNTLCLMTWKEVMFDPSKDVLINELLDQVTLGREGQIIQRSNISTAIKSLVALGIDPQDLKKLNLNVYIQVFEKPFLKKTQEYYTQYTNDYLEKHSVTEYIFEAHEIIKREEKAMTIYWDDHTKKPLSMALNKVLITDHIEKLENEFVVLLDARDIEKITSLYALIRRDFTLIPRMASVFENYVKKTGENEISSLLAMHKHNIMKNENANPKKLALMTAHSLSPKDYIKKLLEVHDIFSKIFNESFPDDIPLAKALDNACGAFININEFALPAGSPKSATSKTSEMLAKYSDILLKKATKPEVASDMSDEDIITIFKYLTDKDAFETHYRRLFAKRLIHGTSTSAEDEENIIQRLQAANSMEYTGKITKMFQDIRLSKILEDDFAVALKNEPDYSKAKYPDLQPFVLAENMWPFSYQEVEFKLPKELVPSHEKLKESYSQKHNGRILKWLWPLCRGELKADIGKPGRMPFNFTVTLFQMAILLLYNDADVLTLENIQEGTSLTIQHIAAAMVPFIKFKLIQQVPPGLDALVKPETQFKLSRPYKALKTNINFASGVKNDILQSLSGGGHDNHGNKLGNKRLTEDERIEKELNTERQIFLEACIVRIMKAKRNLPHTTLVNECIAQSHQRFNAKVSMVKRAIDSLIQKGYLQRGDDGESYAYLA
Briefly: anti-MYC immunoprecipitation from yeast lysate, western blot.

The next test deals with T5, Skp1 (budding yeast).
T5 construct: Endogenous protein in yeast lysates, detected with anti-Skp1 antibodies; also called endogenous Skp1
T5 sequence (chain, as listed by the source limits assumed): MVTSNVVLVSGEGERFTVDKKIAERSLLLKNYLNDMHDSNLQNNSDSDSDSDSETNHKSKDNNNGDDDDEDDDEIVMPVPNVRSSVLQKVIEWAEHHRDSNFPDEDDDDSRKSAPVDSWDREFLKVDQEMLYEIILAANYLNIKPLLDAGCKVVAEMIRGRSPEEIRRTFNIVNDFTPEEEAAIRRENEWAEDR
Briefly: anti-MYC immunoprecipitation from yeast lysate, immunoblot.

The target in the test “Cdc34” is B1. Described as above.

Protocol for Cdc53-Y48W, M49E^MYC6: This powder was thawed, spun to remove cellular debris, and cleared by spinning in ultracentrifuge. Protein concentration in the lysate was adjusted to 24 mg/ml in a volume of 1.25 ml lysis buffer+10 mM N-ethyl maleimide, for a final mass of 30 mg protein for each strain. 25 µl of a 50% slurry in lysis buffer of protein-A beads (Pierce) cross-linked with dimethyl suberimidate to the anti-MYC monoclonal antibody 9E10 was added to each lysate, incubated with gentle rocking at 4° C. for several hours, washed several times with lysis buffer, aspirated, resuspended in protein sample buffer, and run on two 10% polyacrylamide gels. One gel was transferred to polyvinylidene fluoride membrane and western blotted with anti-MYC, anti-Cdc34, and anti-Skp1 antibodies (FIG. 12A).

As to B1, the binding result with MYC-tagged Cdc53 was “binds”; in test [1], “binds”; in test [2], “no binding”; in the test with Cdc53-Y48W, M49E^MYC6, “binds”.

B2: Cdc53 with IVRIMK (residues 755-760) mutated to polyalanine (MYC-tagged) (other, not shown: small tags and cut ends)
chain: MSETLPRSDDLEATWNFIEPGINQILGNEKNQASTSKRVYKILSPTMYMEVYTAIYNYCVNKSRSSGHFSTDSRTGQSTILVGSEIYEKLKNYLKNYILNFKQSNSETFLQFYVKRWKRFTIGAIFLNHAFDYMNRYWVQKERSDGKRHIFDVNTLCLMTWKEVMFDPSKDVLINELLDQVTLGREGQIIQRSNISTAIKSLVALGIDPQDLKKLNLNVYIQVFEKPFLKKTQEYYTQYTNDYLEKHSVTEYIFEAHEIIKREEKAMTIYWDDHTKKPLSMALNKVLITDHIEKLENEFVVLLDARDIEKITSLYALIRRDFTLIPRMASVFENYVKKTGENEISSLLAMHKHNIMKNENANPKKLALMTAHSLSPKDYIKKLLEVHDIFSKIFNESFPDDIPLAKALDNACGAFININEFALPAGSPKSATSKTSEMLAKYSDILLKKATKPEVASDMSDEDIITIFKYLTDKDAFETHYRRLFAKRLIHGTSTSAEDEENIIQRLQAANSMEYTGKITKMFQDIRLSKILEDDFAVALKNEPDYSKAKYPDLQPFVLAENMWPFSYQEVEFKLPKELVPSHEKLKESYSQKHNGRILKWLWPLCRGELKADIGKPGRMPFNFTVTLFQMAILLLYNDADVLTLENIQEGTSLTIQHIAAAMVPFIKFKLIQQVPPGLDALVKPETQFKLSRPYKALKTNINFASGVKNDILQSLSGGGHDNHGNKLGNKRLTEDERIEKELNTERQIFLEACAAAAAAAKRNLPHTTLVNECIAQSHQRFNAKVSMVKRAIDSLIQKGYLQRGDDGESYAYLA
notes: also called CDC53^MIVRIMK; pMT1859
B2: the binding result with Skp1 and with Cdc34 was “binds” in each case.
